How the values were obtained:
Saccharomyces cerevisiae [1] = experiment: protein stability index of tFT-peptide fusion in wild type (PSI (0-1 scale)); higher = more stable (slower turnover); settings: genetic background: wild type
Saccharomyces cerevisiae [2] = experiment: protein stability index of tFT-peptide fusion in deletion strain of DOA10 (PSI (0-1 scale)); higher = more stable (slower turnover)
Procedure: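 MPS profiling in S. cerevisiae of two library types built from selected 12-aa C-degron peptides (IN1, IN2, LN1, LN3, VN2, R1-R5, W1-W3, Atg1 and Rpa12 C-termini): saturation mutagenesis libraries and C-terminal +1 capping libraries (13 aa). Each peptide is fused to the C-terminus of a sfGFP-mCherry timer, after a GGGS linker. Cells are FACS-sorted into 8 mCherry/sfGFP bins and sequenced. PSI runs from 0 (unstable) to 1 (stable), measured once in wild type and in the das1Δ or doa10Δ background.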
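Throughout, for protein stability index of tFT-peptide fusion in deletion strain of DOA10: PSI per variant is the weighted mean of its sequencing read distribution over the sorted stability bins, counting only variants with over 10 reads summed across bins.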
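Throughout, for protein stability index of tFT-peptide fusion in wild type: PSI derived as read-weighted mean over the 8 sorting bins, only variants exceeding 10 total reads kept, mCherry placed adjacent to the peptide and sfGFP distal.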

Row | Sequence | protein stability index (Saccharomyces cerevisiae [1]) | protein stability index (Saccharomyces cerevisiae [2])
1 | GYYMCSVGCWFR | 0.227 | 0.643
2 | CLVSLPIGLFFR | 0.101 | 0.674
3 | CLVDLPILLFFR | 0.0636 | 0.635
4 | RSLQVLLPLYFR | 0.264 | 0.675
5 | AITLEMCPLLLR | 0.372 | 0.667
6 | CLVSLPILLCFR | 0.0846 | 0.564
7 | CLVSLPILLNFR | 0.424 | 0.655
8 | CLVSLPILLWFR | 0.0579 | 0.567
9 | RTLRVLLPLYFR | 0.304 | 0.657
10 | CLVSDPILLFFR | 0.589 | 0.656
11 | CLVSLPILLFFN | 0.118 | 0.288
12 | RSLRRLLPLYFR | 0.466 | 0.683
13 | AITLPMCNLLLR | 0.29 | 0.683
14 | AIDLPMCPLLLR | 0.319 | 0.651
15 | GLYMCSVGVWFR | 0.198 | 0.453
16 | GLYMCSKGCWFR | 0.489 | 0.673
17 | AITLPMCPFLLR | 0.624 | 0.661
18 | GLYMCSVGCWFV | 0.4 | 0.467
19 | CTVSLPILLFFR | 0.0564 | 0.619
20 | LITLPMCPLLLR | 0.349 | 0.626
21 | CLMSLPILLFFR | 0.0514 | 0.591
22 | AITLHMCPLLLR | 0.271 | 0.62
23 | GLYMCSVGCWKR | 0.612 | 0.66

Row | Sequence | protein stability index (Saccharomyces cerevisiae [1]) | protein stability index (Saccharomyces cerevisiae [2])
24 | DSLRVLLPLYFR | 0.33 | 0.676
25 | AIQLPMCPLLLR | 0.213 | 0.649
26 | RVTRLDAIYSRI | 0.702 | 0.737
27 | RVTRLDAIIFRI | 0.499 | 0.703
28 | CLGSLPILLFFR | 0.0966 | 0.628
29 | CLVSLPILLFFRM | 0.0495 | 0.458
30 | CLVILPILLFFR | 0.0975 | 0.456
31 | GLYMCSWGCWFR | 0.296 | 0.665
32 | CLESLPILLFFR | 0.192 | 0.65
33 | CLVSLPILLFFRC | 0.0599 | 0.45
34 | GLYMCSVGCWYR | 0.407 | 0.611
35 | AITLPMCPLELR | 0.641 | 0.682
36 | GLYMKSVGCWFR | 0.257 | 0.673
37 | RGLRVLLPLYFR | 0.378 | 0.673
38 | GLYMCSVGCWFRY | 0.173 | 0.619
39 | CLVSLPILLFFRG | 0.0927 | 0.564
40 | RVTRLDAIYGRI | 0.69 | 0.724
41 | AITLPMCPHLLR | 0.645 | 0.687
42 | VITLPMCPLLLR | 0.303 | 0.615
43 | AITLPMCPLLCR | 0.238 | 0.265
44 | AITLPMCPLLIR | 0.219 | 0.427
45 | RVTRLDAIYFGI | 0.682 | 0.721
46 | RSLRVLLPIYFR | 0.242 | 0.663

Row | Sequence | protein stability index (Saccharomyces cerevisiae [1]) | protein stability index (Saccharomyces cerevisiae [2])
47 | RVTRLDAIYFRID | 0.54 | 0.603
48 | RSLEVLLPLYFR | 0.219 | 0.691
49 | RSLRVLLPLYFRM | 0.202 | 0.411
50 | CLVSLPILEFFR | 0.637 | 0.672
51 | AATLPMCPLLLR | 0.377 | 0.684
52 | CAVSLPILLFFR | 0.0547 | 0.627
53 | AITLPCCPLLLR | 0.236 | 0.659
54 | GLKMCSVGCWFR | 0.247 | 0.678
55 | RSLRVLLPLYQR | 0.617 | 0.659
56 | RSLRVVLPLYFR | 0.178 | 0.679
57 | GLYMCSVGCWSR | 0.584 | 0.622
58 | AITLPMCPLLLQ | 0.567 | 0.654
59 | CLVSEPILLFFR | 0.499 | 0.643
60 | RVTYLDAIYFRI | 0.393 | 0.563
61 | RSLRVLLPLNFR | 0.535 | 0.671
62 | RVTRADAIYFRI | 0.525 | 0.684
63 | AITLPMCPLLLRG | 0.31 | 0.55
64 | RVTRLDAFYFRI | 0.644 | 0.713
65 | GLYMCKVGCWFR | 0.396 | 0.631
66 | GLYNCSVGCWFR | 0.414 | 0.674
67 | GLYMCSVVCWFR | 0.253 | 0.314

Reference: the supplement of paper PMC10724198
